# Test results as given in paper PMC6754071.
# Test system: T1, PolR (Microlunatus phosphovorus NM-1), ORF:57668f7d
# T1 sequence: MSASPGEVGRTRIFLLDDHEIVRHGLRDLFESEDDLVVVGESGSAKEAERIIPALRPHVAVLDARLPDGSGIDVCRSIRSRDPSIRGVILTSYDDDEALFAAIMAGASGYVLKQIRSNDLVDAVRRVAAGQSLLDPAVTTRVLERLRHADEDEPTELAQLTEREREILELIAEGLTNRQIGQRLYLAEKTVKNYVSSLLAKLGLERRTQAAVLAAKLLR
# Test: EMSA
# Details: EMSA: 3.0 ug His-PolR, 1.0 ug poly(dI-dC), 8% native PAGE, buffer not given (cites Zhang 2014); footprinting: 30 min room temperature, DNase I 1 min 25 C
row,Sequence,binding
1,AGACGAGTGCTGCCGTGCACCGACTTCGCATCGGCGCCGCAACACAGTCCCCGCCCGTCGTTCGCTCGGCGTTCACCGGCGGGCCCTCGAGTCGTCAGAATGGCTGCCTAGCGTCTGGACCGGAGCCAGTGTCGCTCCTTACGTTCATTGCACGAGTCACACTCCGACAAGGGGAACGAGTGAAGAT (double strand) [pstS (MLP_RS23035) promoter],binds
2,ATTTGCAGCACTCCGTTCGCCGATTTGCAGCAGGCTTCTGTTCCGTGTGGTCCCCCGACCCAGGGGACCACGGAAACAACTGCGCAGCCCCCGCCCGAGGATCACCCGGAATCTTCCCCCAGGTTTGCCCTGACCCACAGAGGACGCCGCGGGACGAAGTCAACTTCAGCGTACGGTGGAGCACA (double strand) [ppgk (MLP_RS02595) promoter],no binding
3,CAGTTCACAGTCGCGATACTAGGTCGTAAGCCCGCCTCAAGTTGCCGCTCATGGGGTCGCCACACGCAGCTACAGGGAGGGTTCGGGCTGAGTTCACCCCTCGTTCACATCCGAACTTCGCCAGCCGGTCCATTTCGGGCATAGGCTCGAAGTCGAGCTTTTCTGATCAATCCCGAGGAATCC (double strand) [phoU (MLP_RS22885) promoter],no binding
4,GACAGCGATCACGGAGATCAGTAGCCAGTCCATGATTGATCTTCCCCTTGCACGGTCAACAACGACAACCCAATCGTCGTGCCATGAGATGGTCGGCCACACGGGTCTTTCGGCTCTATCTGGTCCTTCCTTCGTCACCGGGAGGGCCCGCCGCCGTTCACCCACCGTTCACTGTGCTGGTCG (double strand) [pit (MLP_RS00235) promoter],binds
5,TCAGCCATCTGGACAACCTATCGTCCACACCACACGAGATAGCCGAGTTGGTCAGGTATTGATGCGAGTTGGGGTCGAACGTCCCGTCAGATCCGGTTCGAACGCATCACCTTTGAGTGAAGGCTCATCCGACAACGGGGATCAGCACACTCCTAG (double strand) [ppk (MLP_RS23025) promoter],binds
6,TCGCTCTCGGTGTTGATCGATCCGGAGCGCCCGTCCAGACCCTGCACCGATCCGTCGAGGGTCGAGACGAAGTTGCTCCGGACGACCGGTCCGGAGCCGCCTTCGGGCCAGCGATAGAGATCGATCAGGTCTGCTCGGCTGAGCTCGGCGGATGGTCGAGGGTCCGCGTG (double strand) [pap (MLP_RS11265) promoter],no binding
7,TCGTCTCGGCAGCCCTTGGGTGAACTGTTCTCCGAGCGTGAGTAACGCCTCCGGGCGAGCGAGATGAACTGTTCGTGAATCCGCCGCCCGGGGGCCGTTCCAGGTGGATTTGACCGGTTTCGGAACCCCACGATGGTCGCGTGACCGAAGCTC (double strand) [pit (MLP_RS14415) promoter],no binding
8,TGTGTCCCTTCCGTGAAACCTCGTCGGTGAAGTCTGGTGCGGGCGAGGGGAATCCCGCCCGGAGGGGAGGCTAAACCACCCAGGAGAATGAATGGAGTGTGGTGGCGCCTCGCGAGAATCCGAGCCGCTTCGGCGGATCGGCGCCCGAGGCTCCCTCCGGTGACAGCACGTTCACCCTGCC (double strand) [ppgk (MLP_RS12905) promoter],binds
9,TTCGACCTCCGTATTCGGCTATTCGACTGTCCACCCTCTTCGTTACCACCGAGGGAGACACGTCACATTCACAACTCCCGGTCTGCGGATCAGACCAGCGATGCTGTCCGTGACTGCGGAAAGCTGACGACCGGAGACTGAGCGCCGGGGACCCGTTAACCCATTGTTCGCCCGGCA (double strand) [ppk2 (MLP_RS02760) promoter],no binding
